In general, pKd refers to the Kd on a negative log10 scale, so that one unit is a factor of ten. A lower pKd goes with a high Kd. As usually defined, the koff is the rate constant with which the complex falls apart. The low end stands for a long-lived complex, the high end for a short-lived complex. Broadly, the kon is the second-order rate constant of association. A lower kon goes with slower complex formation. As usually defined, the stoichiometry N is a count of units in the complex or per binding partner.

Assay [1] has as its target GfcC-biotin (from pMCSG7, His6-tag removed, biotinylated) (Escherichia coli O127:H6 str. E2348/69) (UniProt P75883). In words: BLI; biotinylated GfcC on streptavidin sensor, GfcB (C-terminal His6, pETBlue2) in solution 0.1-1.6 μM, 25°C, 20 mM Tris-HCl pH 7.5, 150 mM NaCl, 0.1 mg/mL BSA; fit 1:1 and 1:1 with conformational change. (In general: BLI is a label-free optical method that tracks binding on a fibre tip over time.)

For assay [2], the target named is His6-GfcB (from pMCSG7, tag kept) (Escherichia coli O127:H6 str. E2348/69) (UniProt P75884). In words: cross-linking; purified proteins mixed at 5 μM in 20 mM Hepes, 150 mM NaCl, 0.06% DDM pH 7.5, cross-linked with DSP 1 hour at room temperature, SDS-PAGE, blots with anti-polyhistidine and anti-GfcC.
The target in assay [3] is GfcB-biotin (from pMCSG7, His6-tag removed, biotinylated) (Escherichia coli O127:H6 str. E2348/69) (UniProt P75884). Description: BLI; biotinylated GfcB on streptavidin sensor, GfcC in solution 0.2-1.6 μM, 25°C, 20 mM Tris-HCl pH 7.5, 150 mM NaCl, 0.1 mg/mL BSA; fit 1:1 and 1:1 with conformational change.
The target of assay [4] is GfcD-biotin (from pBH31, His-tag removed, biotinylated) (Escherichia coli O127:H6 str. E2348/69) (UniProt P75882). In words: BLI; biotinylated GfcD on streptavidin sensor, GfcB, GfcC or GfcBC in solution 3.75-60 μM, 25°C, 20 mM Tris-HCl pH 7.5, 150 mM NaCl, 0.1 mg/mL BSA, 0.02% DDM; 1:1 model.
Assay [5] concerns the target GfcD (expressed from pBH31, residues 22-698, His-tag removed by TEV) (Escherichia coli O127:H6 str. E2348/69) (UniProt P75882). In words: ITC; 160 μM GfcB-GfcC complex injected into 20 μM GfcD, 25°C, 20 mM Tris-HCl pH 7.5, 150 mM NaCl, 0.02% DDM; 1:1 model, n held at 1.0.
The target in assay [6] is GfcC (expressed from pMCSG7 without signal sequence, His6-tag removed) (Escherichia coli O127:H6 str. E2348/69) (UniProt P75883). Description: ITC; 100 μM GfcB injected into 10 μM GfcC, 25°C, 20 mM Tris-HCl pH 7.5, 150 mM NaCl; 1:1 model. (In general: In ITC the heat of successive injections is recorded.)

pKd: −log10 of the molar value.

In assay [1], “GfcB with C-terminal His6-tag expressed from pETBlue2(gfcB) (from UniProt P75884 16-214) (natural protein)” gave a KD (1:1 with conformational change, binding step) of 407 nM; a pKd of 6.76; a ka1 (1:1 with conformational change, binding step) of 80400 M⁻¹ s⁻¹; a kd1 (1:1 with conformational change, binding step) of 0.0328 s⁻¹. Also, in assay [1], the kd2 (1:1 with conformational change, conformational step) turned out to be 0.0107 s⁻¹; the koff stood at 0.0126 s⁻¹; the kon amounted to 71700 M⁻¹ s⁻¹.

In the case of “His6-GfcB (from pMCSG7, tag kept) (from UniProt P75884 16-214) (natural protein)”, the stoichiometry N in assay [2] is 2.

In assay [3], “GfcC (expressed from pMCSG7 without signal sequence, His6-tag removed) (from UniProt P75883 23-248) (natural protein)” showed a KD (1:1 with conformational change, binding step) of 1010 nM; a negative logarithm of the Kd (pKd) of 6.43; a ka1 (1:1 with conformational change, binding step) of 59900 M⁻¹ s⁻¹; a kd1 (1:1 with conformational change, binding step) of 0.0603 s⁻¹. In assay [3], this substance displayed a kd2 (1:1 with conformational change, conformational step) of 0.015 s⁻¹; a koff of 0.0196 s⁻¹; a kon of 52300 M⁻¹ s⁻¹. Further, in assay [4], the pKd was 3.59, the koff came out at 0.0286 s⁻¹ and the kon worked out at 111 M⁻¹ s⁻¹.

With “GfcB-GfcC heterodimer (from UniProt P75884 16-214; P75883 23-248) (complex)”, in assay [5], the pKd is 4.55 and the dH is -7.24 kcal/mol. In assay [4], this substance showed a pKd of 5.04, a koff of 0.00716 s⁻¹ and a kon of 781 M⁻¹ s⁻¹.

In assay [6], “GfcB (expressed from pMCSG7 without signal sequence, His6-tag removed) (from UniProt P75884 16-214) (natural protein)” had a pKd of 7.00, a dH of -6.92 kcal/mol and a stoichiometry N of 1.01. In assay [4], the pKd was 4.85, the koff stood at 0.00926 s⁻¹ and the kon amounted to 652 M⁻¹ s⁻¹.

The values above are taken from article PMC8592465.
